In assay [1] the target is HLA-A*32:01. Description: IEDB peptide-MHC binding, purified MHC/competitive/radioactivity; filed as Kd, often an IC50 or EC50 that approximates it; ≥ and ≤ were set here for values at or beyond the usual limits of such assays.
Assay [2] deals with HLA-B*08:01. Described as above.
In assay [3] the target is HLA-A*26:01. Description: IEDB peptide-MHC binding, purified MHC/direct/fluorescence; filed as Kd, often an IC50 or EC50 that approximates it; ≥ and ≤ were set here for values at or beyond the usual limits of such assays.
Assay [4] addresses HLA-A*02:06. Description: IEDB peptide-MHC binding, purified MHC/competitive/radioactivity; filed as Kd, often an IC50 or EC50 that approximates it; ≥ and ≤ were set here for values at or beyond the usual limits of such assays.
For assay [5], the target named is HLA-A*68:02. The assay is described as above.
In assay [6] the target is HLA-A*29:02. The description is as above.
The target of assay [7] is HLA-A*26:01. The description is as above.
The target of assay [8] is HLA-A*01:01. The assay is described as above.
Assay [9] deals with HLA-A*30:02. Described as above.
In assay [10] the target is HLA-A*23:01. The description is as above.
Assay [11] deals with HLA-A*24:02. The assay is described as above.
For assay [12], the target named is HLA-A*24:02. Description: IEDB peptide-MHC binding, purified MHC/competitive/fluorescence; ≥ and ≤ were set here for values at or beyond the usual limits of such assays.
Assay [13] has as its target HLA-A*02:01. The assay is described as above. The conditions noted are these: source organism: Zaire ebolavirus.
Assay [14] concerns the target HLA-B*39:01. Description: IEDB peptide-MHC binding, purified MHC/competitive/fluorescence; filed as Kd, often an IC50 or EC50 that approximates it; ≥ and ≤ were set here for values at or beyond the usual limits of such assays. Conditions: source organism: Giardia lamblia ATCC 50803.
Assay [15] concerns the target HLA-B*18:01. Description: IEDB peptide-MHC binding, purified MHC/direct/fluorescence; filed as Kd, often an IC50 or EC50 that approximates it; ≥ and ≤ were set here for values at or beyond the usual limits of such assays. Conditions: source organism: Campylobacter jejuni RM1221.
Setting [16] is: source organism: Vaccinia virus Copenhagen.
The mark [17] stands for this setting: source organism: Vaccinia virus WR.
[18] abbreviates: source organism: Lymphocytic choriomeningitis virus (strain Armstrong).
Setting [19] is: source organism: Dengue virus 2 Jamaica/1409/1983.
Setting [20] is: source organism: Zaire ebolavirus.
The mark [21] stands for this setting: source organism: Dengue virus 3 Martinique/1243/1999.
The mark [22] stands for this setting: source organism: SARS coronavirus Tor2.
The mark [23] stands for this setting: source organism: Mammarenavirus machupoense.
Where [24] appears, read: source organism: Dengue virus 4 Philippines/H241/1956.
The mark [25] stands for this setting: source organism: Mammarenavirus lassaense.

Our source for the Kd and IC50 values is the Immune Epitope Database (IEDB).

pIC50, pKd: −log10 of the molar value.

For LTIFSTIIF, the pKd (usually −log10 of the Kd, conventionally taken in molar units) in assay [1] (setting [16]) is 6.58.

SLNFRFENV: in assay [2] (setting [17]), the negative logarithm of the Kd (pKd) was 6.23.

With EKMRRERAA, the pKd in [2] (setting [17]) was 8.74.

In the case of DVSEWDAVY, the pKd in assay [3] (source organism: Salmonella enterica subsp. enterica serovar Paratyphi A str. ATCC 9150) was 8.40.

As to RLKQLKRQL, the pKd was at most 4.21 in assay [4] (source organism: Homo sapiens) and 5.08 in assay [5] (source organism: Homo sapiens).

Take SKRTKSKIL: in [2] (setting [17]), the negative logarithm of the Kd (pKd) is 6.85.

As for FQPQNGQFI, the negative-log Kd (pKd) is at most 4.10 in [6] (setting [18]); at most 4.11 in [7] (setting [18]); at most 4.11 in [8] (setting [18]); at most 4.11 in assay [9] (setting [18]); at most 4.69 in [10] (setting [18]); 5.90 in assay [11] (setting [18]).

As to VFYRSGTET, in [12] (setting [16]), the pIC50 – broadly, the negative decadic logarithm of the IC50, by convention in mol/L – was at most 3.83.

Take LTIPPTAGI: the pKd in [5] (setting [19]) was 8.68.

For the sequence NITDKIDQI, the negative-log IC50 (pIC50) in assay [13] is 4.60; in assay [12] (setting [20]) it was 5.01.

Turning to SIRFHIKEL, the negative logarithm of the Kd (pKd) in assay [2] (setting [17]) was 9.34.

Take FQSDIPPLL: the negative-log Kd (pKd) in assay [14] was 8.06.

Regarding YHPVYILPY, the pKd in [15] was 5.84.

Consider INREGKVVGL, for which the pKd in [2] (setting [21]) was 4.96.

IKRGLRTLIL: in [2] (setting [19]), the pKd is 4.99.

As for MRRGDLPVWL, the pKd in assay [2] (setting [19]) was 5.24.

As to ELADTSLSGY, the negative-log Kd (pKd) in [6] (setting [22]) was 7.05; in [7] (setting [22]), 7.61; in [8] (setting [22]) it was 7.13; in assay [9] (setting [22]), 7.12; in [10] (setting [22]), at most 4.15; in assay [11] (setting [22]), at most 4.15.

On to NTNSVTNIEL, for which the pKd in assay [5] (source organism: Dengue virus 4 Dominica/814669/1981) is 7.41.

For the sequence IFFASFYYI, the pKd in assay [6] (setting [22]) is 7.55; in assay [7] (setting [22]), 5.74; in [8] (setting [22]) it was 5.89; in [9] (setting [22]), 5.29; in [10] (setting [22]) it was 8.19; in assay [11] (setting [22]), 7.91.

In the case of SHRPVVLTG, the negative logarithm of the IC50 (pIC50) in assay [12] (source organism: Variola virus) was at most 4.15.

Consider DDPTDSQDT, for which the pIC50 in [12] (setting [20]) is 4.16.

Turning to SNKYRIKSV, the negative logarithm of the Kd (pKd) in assay [2] (setting [17]) is 8.58.

On to GERSRCYSVY, for which the pKd was at most 4.15 in assay [6] (setting [23]); at most 4.16 in assay [7] (setting [23]); at most 4.15 in [8] (setting [23]); 5.35 in assay [9] (setting [23]); at most 4.31 in assay [10] (setting [23]); at most 4.15 in [11] (setting [23]).

For QVFGSVYTT, the pKd in assay [1] (setting [24]) is 5.08.

For EFCDMLRLF, the pKd in assay [3] (source organism: Mammarenavirus guanaritoense) was at most 4.70.

As for AGFVAGLTY, the negative logarithm of the Kd (pKd) in assay [6] (setting [25]) is 6.89; in [7] (setting [25]), at most 4.11; in assay [8] (setting [25]), at most 4.45; in [9] (setting [25]) it was 6.28; in [10] (setting [25]), 5.10; in assay [11] (setting [25]) it was at most 4.28.

Consider RSNTTGKLI, for which the values for the negative logarithm of the IC50 (pIC50) in [13] and in assay [12] (setting [20]) were at most 3.09 and 4.36, respectively.

Consider AVLFVVTLI, for which the negative-log Kd (pKd) in [1] (setting [24]) is 5.90.

Take ELVKVREKQL: the negative-log Kd (pKd) in assay [5] (source organism: Homo sapiens) is 5.36.

On to TVDSSQGSEY, for which the negative logarithm of the Kd (pKd) is 6.08 in assay [6] (setting [22]); 5.97 in [7] (setting [22]); 7.80 in [8] (setting [22]); 6.38 in [9] (setting [22]); at most 4.15 in assay [10] (setting [22]); at most 4.15 in [11] (setting [22]).

Turning to KWDLIISDMY, the pKd in assay [6] (setting [22]) is 6.60; in assay [7] (setting [22]), at most 4.68; in assay [8] (setting [22]) it was at most 4.04; in [9] (setting [22]), 7.07; in [10] (setting [22]), at most 4.15; in assay [11] (setting [22]), at most 4.40.

For the sequence DDDDDIPFP, the negative logarithm of the IC50 (pIC50) in assay [12] (setting [20]) was at most 3.91.

Turning to YPHYKSCAL, the negative-log Kd (pKd) in assay [2] (setting [17]) was 6.00.

Consider MVAGGLLLA, for which the pKd in assay [4] (setting [24]) was 7.75; in assay [5] (setting [24]) it was 7.25.

For ETQHGTILI, the pKd in [7] (setting [21]) was 4.91; in assay [5] (setting [21]) it was 7.67.

As to TSIGKALHQV, in [5] (setting [19]), the pKd is 7.98.

DQIGDIIIA: the pIC50 in assay [12] (source organism: Variola virus) is 6.10.

On to TTANWLWALL, for which the negative-log Kd (pKd) in [8] (setting [24]) is 4.91; in assay [5] (setting [24]), 8.35.

Consider IMKIGIGVLL, for which, in assay [2] (source organism: Dengue virus 3 Singapore/8120/1995), the negative logarithm of the Kd (pKd) is 5.37.
